pIC50: −log10 of the molar value.

The target of assay [1] is IL-1 receptor. As to the kind of experiment: homogeneous time-resolved fluorescence (HTRF) receptor binding assay. (In general: In TR-FRET formats the signal depends on donor and acceptor labels being close together.)
Assay [2] has as its target IL-1 receptor. Kind of assay: cell-based or functional assay.

What is called pIC50 is the IC50 on a negative log10 scale, so that one unit is a factor of ten. Read a low pIC50 as a high IC50. Take “MA-wt (interleukin-1β wild type sequence containing an N-terminal methionine) (from UniProt P01584 117-269) (ligand)”: the pIC50 with IL-1 receptor [1] is 7.70. In the assay with IL-1 receptor [1], “MDI-wt-His6 (from UniProt P01584 118-269) (ligand)” showed a pIC50 of 5.87. In addition, in the assay with IL-1 receptor [2], the Bioactivity reduction (Cytotoxicity, A375 cells), ratio of LC50 to MA-wt worked out at 700 fold and the Bioactivity reduction (IL6 release, HeLa cells), ratio of EC50 to MA-wt turned out to be 43 fold. On to “MDI-D145K-His6 (from UniProt P01584 118-269) (ligand)”, for which, in the assay with IL-1 receptor [1], the pIC50 was 5.32. Further, in the assay with IL-1 receptor [2], the Bioactivity reduction (Cytotoxicity, A375 cells), ratio of LC50 to MA-wt came to 600000 fold and the Bioactivity reduction (IL6 release, HeLa cells), ratio of EC50 to MA-wt is 60000 fold. For “MDI-D145K-CG (from UniProt P01584 118-269) (ligand)”, in that order: 5.17, 600000 fold and 60000 fold. Substance “MA-wt-His6 (from UniProt P01584 117-269) (ligand)” gave a pIC50 with IL-1 receptor [1] of 7.64. The substance “MA-wt-CG (from UniProt P01584 117-269) (ligand)” gave a pIC50 with IL-1 receptor [1] of 7.51. With “MA-D145K-His6 (from UniProt P01584 117-269) (ligand)”, the pIC50 with IL-1 receptor [1] was 7.55.

The values above are taken from patent US20130115189A1.
